Laboratory results as given in patent publication US20150110794A1 (CELL SIGNALING TECHNOLOGY, published 2015).
Substitutions are numbered along the chain they refer to.

B1: C12 (antibody, V domains shown)
VH: QVQLQESGPGLVKPLETLSLTCTVSGGSIRGGDYWWTWVRQPPGKGLEWLGYIYRTGSTYYNPSLKSRLTISLDTSKNHFSLKLASATAADTAVYYCARDPGDDSGGNSGLDYWGQGVLVSVSS
VL: QSMLTQPPSVSAAPGQKVIISCSGSSSNIGNNFVNWYQKFPGTAPKLLIYDNDKRPSGIPDRFSGSKSGTSATLGITGLQTGDEAEYYCGTWDSSLTAGVFGGGTTLTVLG
notes: Human IgG, transiently expressed in HEK293
B2: C11 (antibody, V domains shown)
VH: EVQLLESGGGLIQPGGSLRLSCVASGFTFTRHAINWVRQAPGKGLEWVSAISGSGSSTYYADSVKGRFTISRDNAKNTLYLQMNRLRVEDTAVYYCAKDKDYGMVAATPDAFDIWGQGTMVTVSS
VL: QSVLTQPPSVSAAPGQKVTISCSGSRSNIAKNYVYWYQQLPGTAPKLLIYDTNKRPSGIPDRFSGSKSGTSATLAITGLQTGDEADYYCGTWDSSLKTAIFFGGGTTVTVLG
notes: as for B1
B3: C6 (antibody, V domains shown)
VH: QVQLQESGPGLVKPLETLSLTCTVSGGSISSGSFYWTWIRQHPGKGLEWIGYIHSSGTTYYNPSLKSRLNISRDTSKNQFTLKLSSVTAADTAVYYCAKEIIQWPRRWFDPWGQGTLVTVSS
VL: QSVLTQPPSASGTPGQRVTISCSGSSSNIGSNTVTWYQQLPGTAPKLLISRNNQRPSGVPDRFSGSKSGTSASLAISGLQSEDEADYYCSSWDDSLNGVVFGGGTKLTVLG
notes: as for B1
B4: C8 (antibody, V domains shown)
VH: B3 VH
VL: B2 VL with A30G, T52N, A99G, T107K, V108L
notes: as for B1
B5: C3 (antibody, V domains shown)
VH: B3 VH
VL: B1 VL with F33Y, K39Q, F40L, E86D, S95T, T106K
notes: as for B1
B6: C5 (antibody, V domains shown)
VH: B3 VH
VL: B1 VL
notes: as for B1
B7: C4 (antibody, V domains shown)
VH: B3 VH
VL: QSVLTQPPSVSAAPGQKVIISCSGSGSNIGSHYVNWYQQLPGAAPKLLIYDNDKRPSGIPDRFSGSKSGTSATLAITGLQTGDEADYHCATWDGTLTAGVFGGGTKLTVLG
notes: as for B1
B8: C9 (antibody, V domains shown)
VH: B3 VH
VL: B2 VL
notes: as for B1
B9: C7 (antibody, V domains shown)
VH: B3 VH
VL: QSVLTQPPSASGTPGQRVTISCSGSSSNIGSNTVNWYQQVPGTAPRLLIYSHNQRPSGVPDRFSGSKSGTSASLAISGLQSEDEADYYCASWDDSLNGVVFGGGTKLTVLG
notes: as for B1
B10: C10 (antibody, V domains shown)
VH: B3 VH
VL: QSVLTQPPSASGTPGQRVTISCSGSSSNIGSNYIDWYQQLPGTGPQLLTYRNNQRPSGVPDRFSGSKSGTSASLAISGLRSEDEADYYCASWDDSLSSPVFGGGTKLTVLG
notes: as for B1
B11: C15 (antibody, V domains shown)
VH: EMQLLESGGGLVQPGGSLRVSCAASGFTFSSHAMSWVRQAPGKGLEWVSSISRSGDNTFYADSVKGRFTISRDNIKSTVYLQMNSLRAEDTAVYFCASRYTEGDSVWYFDVWGRGTLVTVSS
VL: EVVLTQSPATLSVSAGDRATLSCRASQSVSRDLAWYQQKPGQAPRLLIYGASTRATDIPVRFSGSGSGTEFSLTISSLQSEDFAVYYCHQYKHWPRTFGQGTKVEIKR
notes: as for B1

What follows are binders tested against CMV AD169 envelope glycoprotein B (gB) (human cytomegalovirus strain AD169, UniProt P06473 32-906) (assay: cell-based or functional assay).

| Binder | CMV Neutr. IC50 |
| --- | --- |
| B1 | > 50 µg/mL |
| B2 | > 50 µg/mL |
| B3 | < 2 µg/mL |
| B4 | > 50 µg/mL |
| B5 | < 0.07 µg/mL |
| B6 | < 6 µg/mL |
| B7 | < 0.04 µg/mL |
| B8 | > 50 µg/mL |
| B9 | > 50 µg/mL |
| B10 | > 50 µg/mL |
| B11 | < 0.3 µg/mL |

What follows are binders tested against T1, AD4 polypeptide (cloned AD4 fragment of CMV AD169 envelope glycoprotein B) (human cytomegalovirus strain AD169, UniProt P06473 112-438) (assay: SPR (Biacore T200), antibody captured on anti-human IgG CM5 chip, AD4 polypeptide as analyte, 1:1 model).
T1 construct: also called antigenic domain 4

| Binder | Kd | koff | kon |
| --- | --- | --- | --- |
| B1 | 3.27 nM | 0.00369 s⁻¹ | 1.13e+06 M⁻¹ s⁻¹ |
| B2 | 5.67 nM | 0.00109 s⁻¹ | 192000 M⁻¹ s⁻¹ |
| B3 | 2.5 nM | 0.00138 s⁻¹ | 554000 M⁻¹ s⁻¹ |
| B4 | 4.49 nM | 0.00186 s⁻¹ | 414000 M⁻¹ s⁻¹ |
| B5 | 0.549 nM | 0.00068 s⁻¹ | 1.24e+06 M⁻¹ s⁻¹ |
| B6 | 0.278 nM | 0.000201 s⁻¹ | 721000 M⁻¹ s⁻¹ |
| B7 | 0.695 nM | 0.00063 s⁻¹ | 908000 M⁻¹ s⁻¹ |
| B8 | 3.95 nM | 0.00238 s⁻¹ | 602000 M⁻¹ s⁻¹ |
| B9 | 7.76 nM | 0.00604 s⁻¹ | 779000 M⁻¹ s⁻¹ |
| B10 | 3.97 nM | 0.00197 s⁻¹ | 496000 M⁻¹ s⁻¹ |
| B11 | 6.44 nM | 0.00234 s⁻¹ | 363000 M⁻¹ s⁻¹ |
